According to patent publication US20240288416:

How the values were obtained:
substrate 1 (S1) = target: T1, substrate 1 (S1)
T1 chain: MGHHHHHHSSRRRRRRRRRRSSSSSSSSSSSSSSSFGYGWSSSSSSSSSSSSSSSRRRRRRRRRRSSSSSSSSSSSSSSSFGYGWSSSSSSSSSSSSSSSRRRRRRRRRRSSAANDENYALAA

[1] = target: green fluorescent protein (GFP) carrying an ssrA tag at the C-terminus

B1: Valosin-containing protein-like ATPase of Thermoplasma acidophilum (protein)
chain: MESNNGIILRVAEANSTDPGMSRVRLDESSRRLLDAEIGDVVEIEKVRKTVGRVYRARPEDENKGIVRIDSVMRNNCGASIGDKVKVRKVRTEIAKKVTLAPIIRKDQRLKFGEGIEEYVQRALIRRPMLEQDNISVPGLTLAGQTGLLFKVVKTLPSKVPVEIGEETKIEIREEPASEVLEEVSRISYEDIGGLSEQLGKIREMIELPLKHPELFERLGITPPKGVILYGPPGTGKTLIARAVANESGANFLSINGPEIMSKYYGQSEQKLREIFSKAEETAPSIIFIDEIDSIAPKREEVQGEVERRVVAQLLTLMDGMKERGHVIVIGATNRIDAIDPALRRPGRFDREIEIGVPDRNGRKEILMIHTRNMPLGMSEEEKNKFLEEMADYTYGFVGADLAALVRESAMNALRRYLPEIDLDKPIPTEILEKMVVTEDDFKNALKSIEPSSLREVMVEVPNVHWDDIGGLEDVKREIKETVELPLLKPDVFKRLGIRPSKGFLLYGPPGVGKTLLAKAVATESNANFISIKGPEVLSKWVGESEKAIREIFKKAKQVAPAIVFLDEIDSIAPRRGTTSDSGVTERIVNQLLTSLDGIEVMNGVVVIGATNRPDIMDPALLRAGRFDKLIYIPPPDKEARLSILKVHTKNMPLAPDVDLNDIAQRTEGYVGADLENLCREAGMNAYRENPDATSVSQKNFLDALKTIRPSVDEEVIKFYRTLSETMSKSVSERRKQLQDQGLYL
Substrate 1 (S1)
  Ires % during VAT-assisted translocation through the inactive proteasome-nanopore (VAT 20.0 µM, ATP 2.0 mM): Ires %=83.81±0.11
  average dwell time of VAT-assisted translocation events (inactive proteasome-nanopore, ATP 2.0 mM): average dwell time is 5.8±3.9 ms
[1]
  average dwell time of GFP blockades at 6.0 mM ATP: decreased 10-fold to 2.4±1.7 ms
  average dwell time of current blockades (inactive proteasome-nanopore, VAT, ATP 2.0 mM): average dwell time is 22.1±20.2 ms
